Reference: patent publication US20230295293A1, “BINDING MOLECULES AGAINST FRa” (AstraZeneca AB, priority 2022, published 2023)

Tests used:
[1] = Pharmacokinetics of anti-FRα antibodies in wild-type SCID mice; assay type: in vivo, mouse; conditions: 5 mg/kg iv bolus, total antibody
Method: Pharmacokinetic parameters were determined using Phoenix 64 software (Certara).
Plasma antibody concentrations were determined by the universal ELISA IgG assay.

human FRα [2] = target: T1, human FRα (Homo sapiens, UniProt P15328); assay: HTRF epitope competition assay with Comparator 3 IgG; assay type: binding; conditions: n > 2; human IgG1 format
T1 construct: CD33 leader (signal peptide) (N, cleaved yes); made in house; host or cells: in-house suspension-adapted CHO cell line
Method: (§1) HTRF epitope competition assays were set up using a titration of test IgG, 1 nM streptavidin cryptate, biotinylated human FRα and DyLight 650 labelled IgG to assay volume of 10 μl. For the Comparator Antibody 1 and Comparator Antibody 2 assays, 0.5 nM biotinylated human FRα and 0.5 nM DyLight 650 labelled Comparator Antibody 1 or Comparator Antibody 2 was used. […] Assay plates were incubated for 3-4 h at room temperature prior to fluorescence measurement.

cyno FRα [3] = assay: HTRF antigen (IgG) binding assay; design: species or system cynomolgus monkey; conditions: hybridoma supernatant, 1 nM biotinylated antigen; binder >30% delta F
Method: (§2) The negative control ratio was derived from nonspecific binding (NSB) control wells. Curves were analysed using GraphPad Prism software using a four-parameter logistic curve-fitting equation.

[4] = Accelerated thermal stability assay, HP-SEC; assay type: physicochemical; conditions: 2 weeks, 1 mg/ml in PBS
Method: IgG were diluted to 1 mg/ml in PBS then incubated at 4° C. or 45° C. for 2 weeks then filtered using filter spin columns (Millipore, UFC30HVNB). High performance-size exclusion chromatography (HP-SEC) was performed by loading 70 μl of IgG onto a TSKgel G3000SWXL; 5 μm, 7.8 mm×300 mm column using a flow rate of 1 ml/min and 0.1 M sodium phosphate dibasic anhydrous and 0.1 M sodium sulphate, pH 6.8 as the isocratic running buffer. Larger molecules are excluded from the pores of the size exclusion column to a greater extent than smaller molecules, and therefore elute earlier. Peaks eluting earlier than the monomer peak are recorded as aggregates. Peaks eluting after the monomer peak (excluding the buffer-related peak) are recorded as fragments. In parallel, antibodies were profiled in the HTRF epitope competition assay for changes in potency.

human FRβ = target: T2, human FRβ (Homo sapiens, UniProt P14207); assay: HTRF antigen (IgG) binding assay; conditions: hybridoma supernatant, 1 nM biotinylated antigen; binder >30% delta F
T2 construct: CD33 signal peptide (N, cleaved yes); made in house
Method: as §2

human FRγ = target: T3, human FRγ (Homo sapiens, UniProt P41439); assay: HTRF antigen (IgG) binding assay; conditions: hybridoma supernatant, 1 nM biotinylated antigen; binder >30% delta F
T3 construct: CD33 signal peptide (N, cleaved yes); made in house
Method: as §2

mouse FRα = target: T4, mouse FRα (Mus musculus, UniProt P35846); assay: HTRF antigen (IgG) binding assay; conditions: hybridoma supernatant, 1 nM biotinylated antigen; binder >30% delta F
T4 construct: CD33 signal peptide (N, cleaved yes); made in house
Method: as §2

human FRα [5] = target: T1, human FRα; assay: HTRF antigen (IgG) binding assay; conditions: hybridoma supernatant, 1 nM biotinylated antigen; binder >30% delta F
Method: as §2

human FRα [6] = target: T1, human FRα; assay: Biacore T200 surface plasmon resonance affinity; assay type: binding; conditions: SPR 25° C.
Method: (§3) Protein A was covalently immobilised to a CM5 chip surface using standard amine coupling techniques at a concentration of 50 μg/ml in 10 mM Sodium acetate, pH 4.0. The antibody was captured onto the Protein A surface in HBS-EP+ buffer, pH 7.4 at 10 μl/min to enable FRα ECD binding. The FRα ECD was serially diluted (0.4 nM-100 nM human FRα ECD; 0.8 nM-200 nM cyno FRα ECD; 30 nM-4000 nM mouse FRα ECD and rat FRα ECD) in HBS-EP+ buffer, pH 7.4 and flowed over the chip at 50 μl/min, with 2 minutes association and 8 minutes dissociation. The chip surface was fully regenerated with pulses of 3 M MgCl2 to remove captured antibody together with any bound FRα ECD. Multiple buffer-only injections were made under the same conditions to allow for double reference subtraction of the final sensorgram sets, which were analysed using Biacore T200 Evaluation Software to derive equilibrium dissociation constants.

[7] = Hydrophobic interaction chromatography (HIC) HPLC; assay type: physicochemical; conditions: higher retention = more hydrophobic
human FRα [8] = target: T1, human FRα; assay: HTRF epitope competition assay with Comparator 2 IgG; assay type: binding; conditions: n > 2; human IgG1 format
Method: as §1

human FRα [9] = target: T1, human FRα; assay: HTRF epitope competition assay with Comparator 1 IgG; assay type: binding; conditions: n > 2; human IgG1 format
Method: as §1

cyno FRα [10] = assay: Biacore T200 surface plasmon resonance affinity; assay type: binding, cynomolgus monkey; conditions: SPR 25° C.
Method: as §3

T2 sequence (P14207 with tags, fused parts or gaps): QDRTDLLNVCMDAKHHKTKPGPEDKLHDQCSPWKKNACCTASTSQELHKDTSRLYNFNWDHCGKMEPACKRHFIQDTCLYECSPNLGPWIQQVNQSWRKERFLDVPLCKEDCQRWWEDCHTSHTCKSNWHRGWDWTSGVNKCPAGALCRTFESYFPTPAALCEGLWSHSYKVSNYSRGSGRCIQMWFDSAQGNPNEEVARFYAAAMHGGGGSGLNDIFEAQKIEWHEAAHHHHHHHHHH
T1 sequence (P15328 with tags, fused parts or gaps): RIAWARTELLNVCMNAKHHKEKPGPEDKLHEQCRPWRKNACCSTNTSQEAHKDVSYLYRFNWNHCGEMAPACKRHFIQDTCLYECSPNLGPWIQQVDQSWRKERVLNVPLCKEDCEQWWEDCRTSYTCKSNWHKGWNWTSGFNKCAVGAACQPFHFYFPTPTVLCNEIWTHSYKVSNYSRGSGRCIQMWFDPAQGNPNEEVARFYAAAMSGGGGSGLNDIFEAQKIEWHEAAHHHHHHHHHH
cyno FRα, sequence (as listed by the source): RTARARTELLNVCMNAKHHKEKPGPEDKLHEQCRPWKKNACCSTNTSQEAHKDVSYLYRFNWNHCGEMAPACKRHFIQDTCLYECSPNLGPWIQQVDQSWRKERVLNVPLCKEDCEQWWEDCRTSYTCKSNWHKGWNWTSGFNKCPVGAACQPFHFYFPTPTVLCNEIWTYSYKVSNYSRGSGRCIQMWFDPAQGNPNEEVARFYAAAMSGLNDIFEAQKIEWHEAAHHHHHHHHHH
T4 sequence (P35846 with tags, fused parts or gaps): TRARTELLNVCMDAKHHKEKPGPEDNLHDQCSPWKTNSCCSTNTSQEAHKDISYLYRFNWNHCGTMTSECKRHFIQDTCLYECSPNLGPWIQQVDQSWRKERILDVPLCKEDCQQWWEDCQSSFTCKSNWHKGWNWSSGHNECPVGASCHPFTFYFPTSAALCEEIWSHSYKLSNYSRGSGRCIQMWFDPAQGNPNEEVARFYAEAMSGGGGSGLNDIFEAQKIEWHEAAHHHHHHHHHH
T3 sequence (P41439 with tags, fused parts or gaps): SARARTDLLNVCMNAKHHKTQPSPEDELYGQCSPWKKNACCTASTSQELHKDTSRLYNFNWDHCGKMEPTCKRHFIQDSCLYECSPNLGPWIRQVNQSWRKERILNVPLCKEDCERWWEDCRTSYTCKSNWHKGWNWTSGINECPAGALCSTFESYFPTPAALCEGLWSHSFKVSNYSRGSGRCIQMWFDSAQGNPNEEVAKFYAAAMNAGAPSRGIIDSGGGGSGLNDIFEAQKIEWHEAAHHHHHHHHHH

HTRF epitope competition assay, geomean IC50 (M), Comparator 3 IgG (human FRα [2]) | HTRF IgG binding assay (% Delta F) Cyno FRα (cyno FRα [3]) [% Delta F] | HTRF IgG binding assay (% Delta F) Human FRβ (human FRβ) [% Delta F] | HTRF IgG binding assay (% Delta F) Human FRγ (human FRγ) [% Delta F] | HTRF IgG binding assay (% Delta F) Mouse FRα (mouse FRα) [% Delta F] | HTRF IgG binding assay (% Delta F) Human FRα (human FRα [5]) [% Delta F] | ka (human FRα [6]) [M⁻¹ s⁻¹] | kd (human FRα [6]) [s⁻¹] | HTRF epitope competition assay, geomean IC50 (M), Comparator 2 IgG (human FRα [8]) | HTRF epitope competition assay, geomean IC50 (M), Comparator 1 IgG (human FRα [9]) | kd (cyno FRα [10]) [s⁻¹] | Molecule | AUClast [1] [µg·days/mL] | CL [1] [mL/day/kg] | Cmax [1] [µg/mL] | Vss [1] [L/kg] | t1/2 [1] [days] | HP SEC % monomer ([4]; 4° C.) [%] | HP SEC % monomer ([4]; 45° C.) [%] | Retention time by HIC-HPLC [7] [min] | ka (cyno FRα [10]) [M⁻¹ s⁻¹]
inhibited | 141.47 | −3.26 | 9.2 | −5.22 | 225.19 | 568000 | 0.000527 | inhibited | inhibited | 0.000508 | AB1370035: anti-FRα fully human IgG1 antibody; VH SEQ ID NO: 41, VL SEQ ID NO: 42 (antibody, V domains shown) VH: QVQLQQSGPGLVKPSQTLSLTCAISGDSVSSNSAAWNWIRQSPSRGLEWLGRTYYRSNWYNDYTLSVKSRITVNPDTSKNQFSLQLNSVTPEDTAVYYCVRGVGRFDSWGQGTLVTVSS VL: DIQMTQSPSTLSASVGDRVIITCRASQSISSWLAWYQQKPGKAPKLLIYKASSLESGVPSRFSGSGSGTEFTLTITSLQPDDFASYYCQEYKTYSIFTFGPGTKVDIK | 455 | 5.6 | 73.2 | 0.16 | 19.5 | 100 | 97.3 | 2.25 | 475000
no inhibition | 213.68 | −0.38 | 1.31 | 1.63 | 270.58 | 279000 | 0.000354 | inhibited | inhibited | 0.000342 | AB1370026: anti-FRα fully human IgG1 antibody; VH SEQ ID NO: 39, VL SEQ ID NO: 40 (antibody, V domains shown) VH: EVQLVESGGGLVKPGGSLRLSCAASGFTFSSYAMSWVRQAPGKGLEWVSSISSGRSYIYYADSVKGRFTISRDNAKNSLYLKMNSLRDEDTAVYYCAREMQQLALDYWGQGTLVTVSS VL: DIQMTQSPSSLSASVGDRVTITCRASQGISNFLAWFQQAPGKAPKSLIYAASSLQSGVPSKFSGSGSGTDFTLTISSLQPEDFATYYCQQYNSYPFTFGQGTKLEIK | 553 | 5.3 | 91.7 | 0.124 | 16.6 | 100 | 97.3 | 1.96 | 195000
no inhibition | 85.33 | −5.87 | −1.17 | −5.66 | 126.25 | 95700 | 0.00129 | inhibited | inhibited | 0.00183 | AB1370095: anti-FRα fully human IgG1 antibody; VH SEQ ID NO: 45, VL SEQ ID NO: 46 (antibody, V domains shown) VH: EVQLVESGGGLVKPGGSLRLSCAASGFTFSSYSMNWVRQAPGKGLEWVSSISSRSSYVYYADSVKGRFTISRDNAKNSLYLQMNSLRAEDTAVYYCARGMTTLTFDYWGQGTLVTVSS VL: DIQMTQSPSSLSASVGDRVTITCRASQGISSFLAWFQQKPGKAPKSLIYAASSLQSGVPSKFSGSGSGTDFTLTISSLQPEDFATYYCQQYNSYPLTFGGGTKVEIK | 646 | 6.6 | 123.2 | 0.071 | 7.8 | 99.2 | 96.6 | 2.12 | 95800
no inhibition | 85.16 | 3.81 | −2.92 | −3.65 | 139.98 | 145000 | 0.000135 | inhibited | inhibited | 0.00016 | AB1370083: anti-FRα fully human IgG1 antibody; VH SEQ ID NO: 43, VL SEQ ID NO: 44 (antibody, V domains shown) VH: EVQLVESGGGLVKPGGSLRLSCAASGFTFSSYNMNWVRQAPGKGLEWVSSISSGSSYIYYADSMKGRFTISRDNAKNSLFLQMNSLRAEDTAVYYCARGMTTLTFDYWGQGTLVTVSS VL: DIQMTQSPSSLSASVGDRVTITCRASQGISTFLAWFQQKPGKAPKSLIYAASSLQSGVPSKFSGSGSETDFTLTISSLQPEDFATYYCQQYISYPLTFGGGTKVEIK | 430 | 8.6 | 86.0 | 0.132 | 11.0 | 99.6 | 98.3 | 2.27 | 101000
